Columns and labels:
[1] = molecular target: the molecule itself; test: FRAPP (fluorescence recovery after fringe pattern photobleaching); FITC-labeled OprM alone in the sponge phase, dW>170 A; hydrodynamic radius from the diffusion coefficient compared with crystallographic and electron microscopy data
[2] = molecular target: T1, OprM trimer, unlabeled (Pseudomonas aeruginosa, UniProt Q51487 18-485, palmitoyl moiety (said of the protein in general)); test: FRAPP (fluorescence recovery after fringe pattern photobleaching); as a5 (dW about 200 A, stoichiometry from free MexA intensity) but at pH 5.5; details: both partners purified
T1 construct: OprM, outer membrane protein of the MexA-MexB-OprM efflux pump of Pseudomonas aeruginosa; also called outer membrane protein OprM; source: expressed and purified as previously described [50]; solubilized in 1% beta-octylglucoside, then inserted into the L3 sponge phase
T1 sequence: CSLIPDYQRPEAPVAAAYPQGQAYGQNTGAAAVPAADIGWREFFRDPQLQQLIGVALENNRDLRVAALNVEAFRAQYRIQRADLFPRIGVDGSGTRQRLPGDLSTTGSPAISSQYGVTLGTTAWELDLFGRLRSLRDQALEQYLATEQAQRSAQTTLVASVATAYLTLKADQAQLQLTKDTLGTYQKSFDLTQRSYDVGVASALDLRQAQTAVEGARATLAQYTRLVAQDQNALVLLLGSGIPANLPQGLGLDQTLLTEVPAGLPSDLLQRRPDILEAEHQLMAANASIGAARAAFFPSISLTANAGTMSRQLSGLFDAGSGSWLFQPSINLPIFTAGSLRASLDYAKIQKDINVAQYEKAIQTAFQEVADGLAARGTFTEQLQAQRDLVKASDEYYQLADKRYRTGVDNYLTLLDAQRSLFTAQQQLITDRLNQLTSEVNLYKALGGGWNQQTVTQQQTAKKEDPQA

[3] = molecular target: T1, OprM trimer, unlabeled; test: FRAPP (fluorescence recovery after fringe pattern photobleaching); dW about 200 A, pH 7.5; OprM trimer constant at 1 uM, molar ratio r of FITC-labeled MexA to OprM trimer varied; stoichiometry from the intensity I0 of free MexA; details: both partners purified

Binder | stoichiometry N [1] | stoichiometry N [2] [MexA per OprM trimer] | stoichiometry N [3] [MexA per OprM trimer]
OprM, FITC-labeled (natural protein, FITC label; palmitoyl moiety (said of the protein in general), OprM, outer membrane protein of the MexA-MexB-OprM efflux pump of Pseudomonas aeruginosa; Same protein as m2, here labeled with FITC and measured alone; also called FITC-labeled OprM; OprM trimer; source: expressed and purified as previously described [50]; labeled with FITC; inserted into the L3 sponge phase) CSLIPDYQRPEAPVAAAYPQGQAYGQNTGAAAVPAADIGWREFFRDPQLQQLIGVALENNRDLRVAALNVEAFRAQYRIQRADLFPRIGVDGSGTRQRLPGDLSTTGSPAISSQYGVTLGTTAWELDLFGRLRSLRDQALEQYLATEQAQRSAQTTLVASVATAYLTLKADQAQLQLTKDTLGTYQKSFDLTQRSYDVGVASALDLRQAQTAVEGARATLAQYTRLVAQDQNALVLLLGSGIPANLPQGLGLDQTLLTEVPAGLPSDLLQRRPDILEAEHQLMAANASIGAARAAFFPSISLTANAGTMSRQLSGLFDAGSGSWLFQPSINLPIFTAGSLRASLDYAKIQKDINVAQYEKAIQTAFQEVADGLAARGTFTEQLQAQRDLVKASDEYYQLADKRYRTGVDNYLTLLDAQRSLFTAQQQLITDRLNQLTSEVNLYKALGGGWNQQTVTQQQTAKKEDPQA | 3 |  | 
MexA, mature form bearing a palmitoyl moiety, FITC-labeled (natural protein, palmitoyl moiety (on the unique N-terminal cysteine); FITC label, MexA, periplasmic lipoprotein of the MexA-MexB-OprM efflux pump of Pseudomonas aeruginosa, in its mature form; Found monomeric in the sponge phase; also called FITC-labeled MexA; periplasmic protein MexA; source: solubilized in 1% beta-octylglucoside, then inserted into the L3 sponge phase) CGKSEAPPPAQTPEVGIVTLEAQTVTLNTELPGRTNAFRIAEVRPQVNGIILKRLFKEGSDVKAGQQLYQIDPATYEADYQSAQANLASTQEQAQRYKLLVADQAVSKQQYADANAAYLQSKAAVEQARINLRYTKVLSPISGRIGRSAVTEGALVTNGQANAMATVQQLDPIYVDVTQPSTALLRLRRELASGQLERAGDNAAKVSLKLEDGSQYPLEGRLEFSEVSVDEGTGSVTIRAVFPNPNNELLPGMFVHAQLQEGVKQKAILAPQQGVTRDLKGQATALVVNAQNKVELRVIKADRVIGDKWLVTEGLNAGDKIITEGLQFVQPGVEVKTVPAKNVASAQKADAAPAKTDSKG |  | 6 | 2
